No end group written: not given here. *: point of attachment. Biotin = O=C1N[C@H]2[C@H](CS[C@H]2CCCCC(=O)*)N1
What was measured:
[1] = biological target: T1, biotin-labeled c-Myc peptide (Biotin-GGGGSEQKLISEEDL); assay: flow cytometry of human T cells 8 days after transduction, stained with biotin-labeled c-Myc peptide plus streptavidin-PE; axis Myc CAR
T1 construct: It is not the BSA conjugate m23; also called biotin c-Myc peptide; stain for Myc CAR
T1 peptide: Biotin-GGGGSEQKLISEEDL
Method: After 24 h, the activated T cells were harvested, resuspended (1×10⁶/ml) in a TM media containing human IL-7, human IL-15, and the lentiviral concentrate, and cultured for two days for CAR transduction. After washing the transduced T cells, the cells were expanded in TM media with human IL-7 and human IL-15 for eight days before use. CAR expression on the cell surface was determined by flow cytometry using biotin-labeled 6×His peptide (Biotin-[…]; Peptron) for hHis CAR-T or biotin-labeled c-Myc peptide (Biotin-[…]; Peptron) for hMyc CAR-T and PE-labeled streptavidin (Biolegend).

[2] = biological target: T2, Human CD40 on cells (Raji, Daudi, IM-9) (human, UniProt P25942 21-277); assay: flow cytometry on Raji cells, anti-Myc staining (axis Myc); number not labelled as MFI on the sheet; 2nd Ab only -30.7
T2 construct: whole, on cells; also called cell surface CD40; hCD40

[3] = biological target: T3, Biotin conjugated 6×His peptide (also: biotin conjugated, site not given here); assay: SPR (Biacore 8K): biotin 6×His peptide captured on immobilized streptavidin, scFv injected in 2-fold dilutions (6 curves)
T3 construct: also called histidine hexamer peptide
T3 peptide: HHHHHH
Excerpt: (§1) Since the murine anti-His antibody had decreased binding affinity against 6×His peptide after humanization, affinity maturation was further performed to increase it and chicken anti-CD40 antibody (2B1) was only humanized. Serial dilution antibodies at 6 concentrations were used to characterize the kinetics of antibody-antigen binding by SPR. […] So, there was not affinity loss against their antigen after humanization (FIG. 22B).
(§2) A Biacore 8K SPR system (Cytiva) equipped with CM5 sensor chip (Cytiva) was used to generate binding kinetic rate and affinity constants. To prepare the capture surfaces for anti-His antibodies, streptavidin was immobilized, followed by biotin conjugated 6×His peptide was captured. The antibodies were 2-fold serial diluted with 1×PBS, then injected at a flow rate of 30 μL/min for 3 minutes, allowing 10 minutes dissociation phase. The surface was regenerated using 10 mM glycine, pH 1.5. The kinetics were analyzed using Biacore 8K evaluation software, version 1.0 (Cytiva). In case of anti-CD40 antibodies, anti-human Fc IgG (Jackson ImmunoResearch) was immobilized, and then CD40-hFc protein (Acro Biosystems, #CD0-H5253) was captured. The antibodies were 2-fold serial diluted with HBS-EP+ buffer (10 mm HEPES, 150 mm sodium chloride, 3 mm EDTA, 0.05% Polysorbate 20), then injected at a flow rate of 30 μL/min for 4 minutes, allowing >15 minutes dissociation phase.

[4] = biological target: T4, CD40-hFc protein (Acro Biosystems, #CD0-H5253) (UniProt P25942 21-193); assay: SPR (Biacore 8K): CD40-hFc captured on immobilized anti-human Fc IgG, scFv injected in 2-fold dilutions (6 curves)
T4 construct: Bought protein
Excerpt: as §1, §2

[5] = biological target: T5, BSA-conjugated c-Myc peptide (also: conjugated to BSA by thiol-maleimide reaction, thiol residue not given here); assay: indirect ELISA after bio-panning against BSA-conjugated c-Myc peptide
T5 construct: also called the antigen
T5 peptide: EQKLISEEDL

T4 sequence (P25942 21-193 limits assumed): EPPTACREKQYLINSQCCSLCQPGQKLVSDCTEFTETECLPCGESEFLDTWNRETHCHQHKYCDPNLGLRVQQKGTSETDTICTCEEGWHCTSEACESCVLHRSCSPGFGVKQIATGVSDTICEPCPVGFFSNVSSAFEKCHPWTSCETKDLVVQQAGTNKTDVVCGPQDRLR
T2 sequence (P25942 21-277): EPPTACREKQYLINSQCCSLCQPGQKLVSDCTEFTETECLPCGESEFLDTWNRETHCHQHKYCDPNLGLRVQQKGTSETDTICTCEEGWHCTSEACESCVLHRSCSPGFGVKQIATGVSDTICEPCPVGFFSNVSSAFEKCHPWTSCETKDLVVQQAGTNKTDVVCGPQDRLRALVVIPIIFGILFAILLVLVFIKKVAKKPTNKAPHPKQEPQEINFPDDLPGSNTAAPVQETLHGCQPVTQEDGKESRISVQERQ

B1: hMyc (3A6) CAR (3A6-BBz), on human T cells (other)
chain: LTQPSSVSANLGGTVKITCSGGGGSDDGSYYYSWHQQKSPGSAPVTVIYENNNRPSDIPSRFSGSKSGSTATLTITGVQAEDEAVYYCGSRDSSYVDYVGIFGAGTTLTVLGQSSRSSGGGGSSGGGGSAVTLDESGGGLQTPGRALSLVCKASGFTFSSYDMAWVRQEPGKGLEYVASISRSGRYTRYGPAVKGRATISRDNGQSTVRLQLNNLRAEDTATYFCTRGGAVSIDTWGHGTEVIVSSTTTPAPRPPTPAPTIASQPLSLRPEACRPAAGGAVHTRGLDFACDIYIWAPLAGTCGVLLLSLVITLYCKRGRKKLLYIFKQPFMRPVQTTQEEDGCSCRFPEEEEGGCELRVKFSRSADAPAYKQGQNQLYNELNLGRREEYDVLDKRRGRDPEMGGKPRRKNPQEGLYNELQKDKMAEAYSEIGMKGERRRGKGHDGLYQGLSTATKDTYDALHMQALPPR
notes: also called hMyc CAR-T cells (3A6)
[1]
  number over the gate bar (percent of cells in the gate): 38.9

B2: hMyc (7A1) CAR (7A1-BBz), on human T cells (other)
chain: LTQPSSVSVNPGETVKITCSGGGSSSYYGWYQQKSPGSAPVTLIYQNTNRPSNIPSRFSGSTSGSTGTLTITGVQAEDEAVYFCGSRDSSGDGIFGAGTTLTVLGQSSRSSGGGGSSGGGGSAVTLDESGGGLQTPGRALSLVCKASGFTFSSYDMAWVRQEPGKGLEYVASISRSGRYTRYGPAVKGRATISRDNGQSTVRLQLNNLRAEDTATYFCTRGGAVSIDTWGHGTEVIVSSTTTPAPRPPTPAPTIASQPLSLRPEACRPAAGGAVHTRGLDFACDIYIWAPLAGTCGVLLLSLVITLYCKRGRKKLLYIFKQPFMRPVQTTQEEDGCSCRFPEEEEGGCELRVKFSRSADAPAYKQGQNQLYNELNLGRREEYDVLDKRRGRDPEMGGKPRRKNPQEGLYNELQKDKMAEAYSEIGMKGERRRGKGHDGLYQGLSTATKDTYDALHMQALPPR
notes: also called hMyc CAR-T cells (7A1)
[1]
  number over the gate bar (percent of cells in the gate): 19

B3: hMyc (8A9) CAR (8A9-BBz), on human T cells (other)
chain: LTQPSSVSANPGETVEITCSGGSSGYYGWHQQKSPGSAPVTVIYENTNRPSDIPSRFSGSKSGSTATLTITGVQADDEAVYFCGSYDSSSASGIFGAGTTLTVLGQSSRSSGGGGSSGGGGSAVTLDESGGGLQTPGGGLSLVCKASGFTFSSYDMAWVRQEPGKGLEYVASISRSGRYTRYGPAVKGRATISRDNGQSTVRLQLNNLRAEDTATYFCTRGGAVSIDTWGHGTEVIVSSTTTPAPRPPTPAPTIASQPLSLRPEACRPAAGGAVHTRGLDFACDIYIWAPLAGTCGVLLLSLVITLYCKRGRKKLLYIFKQPFMRPVQTTQEEDGCSCRFPEEEEGGCELRVKFSRSADAPAYKQGQNQLYNELNLGRREEYDVLDKRRGRDPEMGGKPRRKNPQEGLYNELQKDKMAEAYSEIGMKGERRRGKGHDGLYQGLSTATKDTYDALHMQALPPR
notes: also called hMyc CAR-T cells (8A9)
[1]
  number over the gate bar (percent of cells in the gate): 21.9

B4: 2B1-Ck-L2-Myc (scFv)
scFv: QAALTQPSSVSANPGETVKITCSGGDSYAGSYYYGWFQQKAPGSAPVTVIYYNDKRPSDIPSRFSGSTSGSTSTLTITGVQAEDEAVYYCGSIDTSSGTGIFGAGTTLTVLGQSSRSSGGGGSSGGGGSAVTLDESGGGLQTPGGALSLVCKGSGFTFSSYQMFWVRQAPGKGLEYVAEISGSGLSTWYAPAVKGRATISRDNGQSTVRLQLNNLRAEDTGTYYCAKAAGSCGVGTCAGGIVDGIDAWGHGTEVIVSSTSGQAGQRTVAAPSVFIFPPSDEQLKSGTASVVCLLNNFYPREAKVQWKVDNALQSGNSQESVTEQDSKDSTYSLSSTLTLSKADYEKHKVYACEVTHQGLSSPVTKSFNRGESGGGGSGGGSEQKLISEEDL
[2]
  MFI: 2070

B5: 2B1-Cκ-Myc (2B1-Cκ linked with C-terminal Myc peptide) (scFv)
scFv: QAALTQPSSVSANPGETVKITCSGGDSYAGSYYYGWFQQKAPGSAPVTVIYYNDKRPSDIPSRFSGSTSGSTSTLTITGVQAEDEAVYYCGSIDTSSGTGIFGAGTTLTVLGQSSRSSGGGGSSGGGGSAVTLDESGGGLQTPGGALSLVCKGSGFTFSSYQMFWVRQAPGKGLEYVAEISGSGLSTWYAPAVKGRATISRDNGQSTVRLQLNNLRAEDTGTYYCAKAAGSCGVGTCAGGIVDGIDAWGHGTEVIVSSTSGQAGQRTVAAPSVFIFPPSDEQLKSGTASVVCLLNNFYPREAKVQWKVDNALQSGNSQESVTEQDSKDSTYSLSSTLTLSKADYEKHKVYACEVTHQGLSSPVTKSFNRGESEQKLISEEDL
notes: also called 2B1-Ck-Myc; Myc peptide-tagged anti-hCD40 adaptor
[2]
  MFI: 1860

B6: 2B1-Ck-L1-Myc (scFv)
scFv: QAALTQPSSVSANPGETVKITCSGGDSYAGSYYYGWFQQKAPGSAPVTVIYYNDKRPSDIPSRFSGSTSGSTSTLTITGVQAEDEAVYYCGSIDTSSGTGIFGAGTTLTVLGQSSRSSGGGGSSGGGGSAVTLDESGGGLQTPGGALSLVCKGSGFTFSSYQMFWVRQAPGKGLEYVAEISGSGLSTWYAPAVKGRATISRDNGQSTVRLQLNNLRAEDTGTYYCAKAAGSCGVGTCAGGIVDGIDAWGHGTEVIVSSTSGQAGQRTVAAPSVFIFPPSDEQLKSGTASVVCLLNNFYPREAKVQWKVDNALQSGNSQESVTEQDSKDSTYSLSSTLTLSKADYEKHKVYACEVTHQGLSSPVTKSFNRGESGGGGSEQKLISEEDL
[2]
  MFI: 1520

B7: 2B1-L1-Myc-Ck (scFv)
scFv: QAALTQPSSVSANPGETVKITCSGGDSYAGSYYYGWFQQKAPGSAPVTVIYYNDKRPSDIPSRFSGSTSGSTSTLTITGVQAEDEAVYYCGSIDTSSGTGIFGAGTTLTVLGQSSRSSGGGGSSGGGGSAVTLDESGGGLQTPGGALSLVCKGSGFTFSSYQMFWVRQAPGKGLEYVAEISGSGLSTWYAPAVKGRATISRDNGQSTVRLQLNNLRAEDTGTYYCAKAAGSCGVGTCAGGIVDGIDAWGHGTEVIVSSTSGQAGQGGGGSEQKLISEEDLRTVAAPSVFIFPPSDEQLKSGTASVVCLLNNFYPREAKVQWKVDNALQSGNSQESVTEQDSKDSTYSLSSTLTLSKADYEKHKVYACEVTHQGLSLPVTKSFNRGES
[2]
  MFI: 2400

B8: Murine anti-His scFv (scFv)
scFv: DILMTQTPSSLPVSLGDQASISCRSSQSIVHSNGNTYLEWYLQKPGQSPKLLIYKVSNRFSGVPDRFSGSGSGTDFTLKISRVEAEDLGVYYCFQGSHVPFTFGSGTKLEIKRGGGGSGGGGSGGGGSGGGGSQVQLQQSGPEDVKPGASVKISCKASGYTFTDYYMNWVKQSPGKGLEWIGDINPNNGGTSYNQKFKGRATLTVDKSSSTAYMELRSLTSEDSSVYYCESQSGAYWGQGTTVTVSA
notes: also called anti-His (3D5M) scFv
[3]
  Kd: 36.6 nM
  koff: 0.00547 s⁻¹
  kon: 149000 M⁻¹ s⁻¹

B9: Chicken anti-CD40 scFv (2B1) (scFv)
scFv: QAALTQPSSVSANPGETVKITCSGGDSYAGSYYYGWFQQKAPGSAPVTVIYYNDKRPSDIPSRFSGSTSGSTSTLTITGVQAEDEAVYYCGSIDTSSGTGIFGAGTTLTVLGQSSRSSGGGGSSGGGGSAVTLDESGGGLQTPGGALSLVCKGSGFTFSSYQMFWVRQAPGKGLEYVAEISGSGLSTWYAPAVKGRATISRDNGQSTVRLQLNNLRAEDTGTYYCAKAAGSCGVGTCAGGIVDGIDAWGHGTEVIVSS
notes: also called parental antibody of the humanized anti-CD40 scFv; 2B1 scFv
[4]
  Kd: 2.83 nM
  koff: 0.00588 s⁻¹
  kon: 2.08e+06 M⁻¹ s⁻¹

B10: Anti-Myc scFv clone 3A6 (scFv)
scFv: QAALTQPSSVSANLGGTVKITCSGGGGSDDGSYYYSWHQQKSPGSAPVTVIYENNNRPSDIPSRFSGSKSGSTATLTITGVQAEDEAVYYCGSRDSSYVDYVGIFGAGTTLTVLGQSSRSSGGGGSSGGGGSAVTLDESGGGLQTPGRALSLVCKASGFTFSSYDMAWVRQEPGKGLEYVASISRSGRYTRYGPAVKGRATISRDNGQSTVRLQLNNLRAEDTATYFCTRGGAVSIDTWGHGTEVIVSS
notes: Selected from a chicken scFv phage library by indirect ELISA; Later produced with an 8×His tag
[5]
  binding result: binds

B11: Anti-Myc scFv clone 7A1 (scFv)
scFv: QAALTQPSSVSVNPGETVKITCSGGGSSSYYGWYQQKSPGSAPVTLIYQNTNRPSNIPSRFSGSTSGSTGTLTITGVQAEDEAVYFCGSRDSSGDGIFGAGTTLTVLGQSSRSSGGGGSSGGGGSAVTLDESGGGLQTPGRALSLVCKASGFTFSSYDMAWVRQEPGKGLEYVASISRSGRYTRYGPAVKGRATISRDNGQSTVRLQLNNLRAEDTATYFCTRGGAVSIDTWGHGTEVIVSS
notes: Selected from a chicken scFv phage library by indirect ELISA
[5]
  binding result: binds

B12: Anti-Myc scFv clone 8A9 (scFv)
scFv: QAALTQPSSVSANPGETVEITCSGGSSGYYGWHQQKSPGSAPVTVIYENTNRPSDIPSRFSGSKSGSTATLTITGVQADDEAVYFCGSYDSSSASGIFGAGTTLTVLGQSSRSSGGGGSSGGGGSAVTLDESGGGLQTPGGGLSLVCKASGFTFSSYDMAWVRQEPGKGLEYVASISRSGRYTRYGPAVKGRATISRDNGQSTVRLQLNNLRAEDTATYFCTRGGAVSIDTWGHGTEVIVSS
notes: as for B11
[5]
  binding result: binds

— patent publication US20250018037A1 (SEOUL NATIONAL UNIVERSITY R AND DB FOUNDATION, published 2025)
